Data published in article PMC4752722 (Cell, 2016).

Target: the molecule itself
Test: cross-linking

B1: CorA double cysteine mutant V183C/A8C (natural protein, Thermotoga maritima)
chain: MEEKRLSCKKGLPPGTLVYTGKYREDFEIEVMNYSIEEFREFKTTDVESVLPFRDSSTPTWINITGIHRTDVVQRVGEFFGIHPLVLEDILNVHQRPKVEFFENYVFIVLKMFTYDKNLHELESEQVSLILTKNCVLMFQEKIGDVFDPVRERIRYNRGIIRKKRADYLLYSLIDALVDDYFCLLEKIDDEIDVLEEEVLERPEKETVQRTHQLKRNLVELRKTIWPLREVLSSLYRDVPPLIEKETVPYFRDVYDHTIQIADTVETFRDIVSGLLDVYLSSVSNKTNEVMKVLTIIATIFMPLTFIAGIYGMNFEYMPELRWKWGYPVVLAVMGVIAVIMVVYFKKKKWL
For B1, which “stoichiometry N” value is on record?
The value was 5.
